Test results published in patent publication US20230057904A1 (Chugai, published 2023).
Positions count from the first letter of the chain named.

T1: human CLDN3 (human, UniProt O15551 1-220)
T1 construct: also called hCLDN3; hCLDN3/BaF
T1 sequence: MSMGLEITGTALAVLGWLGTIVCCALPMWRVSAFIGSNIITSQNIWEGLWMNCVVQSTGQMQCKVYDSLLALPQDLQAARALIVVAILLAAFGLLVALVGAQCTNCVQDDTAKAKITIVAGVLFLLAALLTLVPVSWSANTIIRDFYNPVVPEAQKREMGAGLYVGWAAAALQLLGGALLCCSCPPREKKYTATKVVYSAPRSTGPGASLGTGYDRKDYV

T2: mouse CLDN3 (mouse, UniProt Q9Z0G9 1-219)
T2 construct: also called mCLDN3; mCLDN3/FS293
T2 sequence: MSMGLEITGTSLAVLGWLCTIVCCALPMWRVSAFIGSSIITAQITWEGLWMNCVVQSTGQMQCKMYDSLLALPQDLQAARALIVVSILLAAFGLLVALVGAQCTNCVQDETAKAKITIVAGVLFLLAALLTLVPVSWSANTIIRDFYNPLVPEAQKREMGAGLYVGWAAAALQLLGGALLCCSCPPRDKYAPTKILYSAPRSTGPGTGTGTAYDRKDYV

T3: mouse CLDN9 (mouse, UniProt Q9Z0S7 1-217)
T3 construct: also called mCLDN9; mCLDN9/FS293
T3 sequence: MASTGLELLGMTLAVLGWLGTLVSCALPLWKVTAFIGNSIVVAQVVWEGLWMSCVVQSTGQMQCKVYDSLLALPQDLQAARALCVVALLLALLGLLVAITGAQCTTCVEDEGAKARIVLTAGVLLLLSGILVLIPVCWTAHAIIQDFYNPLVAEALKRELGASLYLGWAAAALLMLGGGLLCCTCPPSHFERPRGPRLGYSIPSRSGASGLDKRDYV

T4: mouse CLDN6 (mouse, UniProt Q9Z262 1-219)
T4 construct: also called mCLDN6; mCLDN6/FS293
T4 chain: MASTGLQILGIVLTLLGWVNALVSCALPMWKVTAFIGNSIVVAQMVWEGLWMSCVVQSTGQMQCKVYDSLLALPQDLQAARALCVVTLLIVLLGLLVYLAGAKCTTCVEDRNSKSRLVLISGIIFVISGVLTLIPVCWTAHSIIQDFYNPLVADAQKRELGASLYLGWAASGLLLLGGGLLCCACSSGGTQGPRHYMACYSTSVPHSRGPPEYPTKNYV

T5: human CLDN4 (human, UniProt O14493 1-209)
T5 construct: also called hCLDN4; hCLDN4/BaF
T5 sequence: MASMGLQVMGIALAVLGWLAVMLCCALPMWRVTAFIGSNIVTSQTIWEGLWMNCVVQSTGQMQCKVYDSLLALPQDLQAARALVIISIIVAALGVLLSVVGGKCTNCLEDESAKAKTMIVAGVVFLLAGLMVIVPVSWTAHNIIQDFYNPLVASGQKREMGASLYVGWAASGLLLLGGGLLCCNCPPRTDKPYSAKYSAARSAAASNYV

B1: AH05/TR01 (bispecific antibody, V domains shown)
VH 1: EVQVEQSGPELVKPGASVKISCKTSGYTFTEYTMHWVKQSHGKSLEWIGGINPNNGNTRYNQKFKGKATLTVDKSSSTAYMELRTLTSEDSAVYYCARCGDFDLFFFFAYWGQGTLVTVSA
VL 1: DIVMTQSQKFMSTSVGDRVSVTCKASQNVGSNVAWYQQKPGQSPEGLISSASSRFSGVPDRFTGSGSGTDFTLTITNVQSEDLAEYFCQQYNSYPFTFGSGTELEIK
VH 2: QVQLVESGGGVVQPGGSLRLSCAASGFTFSNAWMHWVRQAPGKGLEWVAQIKDKSQNYATYVAESVKGRFTISRADSKNSIYLQMNSLKTEDTAVYYCRYVHYAAGYGVDIWGQGTTVTVSS
VL 2: DIVMTQSPLSLPVTPGEPASISCRSSQPLVHSNRNTYLHWYQQKPGQAPRLLIYKVSNRFSGVPDRFSGSGSGTDFTLKISRVEAEDVGVYYCGQGTQVPYTFGQGTKLEIK
notes: IgG format by Fab arm exchange, silent Fc; also called anti-CLDN6/CD3 bispecific antibody AH05/TR01
B2: AE3-20/TR01 (bispecific antibody, V domains shown)
VH 1: EVKLVESGGGLVKPGGSLKLSCAASGFTFNSYTMSWVRQTPAKRLEWVVTISSGGGRTYYPDSVKGRFTISRDNARNTLYLQMSSLRSEDTAMYYCIRGDYRYDGFAYWGQGTLVTVST
VL 1: DIQMTQSPASLSASVGETVTITCRASENIDSYLAWYQQKQGKSPQLLVYASTLLVDGVPSRFSGSRSGTQFSLKINSLQSEDVARYYCQHYYSIPYTFGSGTKLEIK
VH 2: B1 VH 2
VL 2: B1 VL 2
notes: also called anti-CLDN6/CD3 bispecific antibody AE3-20/TR01; AE3.20H/AE3.20L//TR01
B3: bivalent IgG antibody 25H0021/20L0072 (antibody, V domains shown)
VH: QVQLVESGGGVVQPGRSLRLSCAASGFTFSSLTMSWVRQAPGQGLEWMGTISSGGGRTYYPDSVKGRFTISRDNSKNTLYLQMNSLRAEDTAVYYCARGDYRYDGFAYWGQGTLVTVSS
VL: DIQMTQSPSSLSASVGDRVTITCRASYNIDSYLAWYQQKPGKAPKLLIYASTLLVDGVPSRFSGSRSGTDFTLTISSLQPEDFATYYCQHYYSIPYTFGQGTKLEIK
B4: CS2201 (bispecific antibody, V domains shown)
VH 1: B3 VH with L32Y
VL 1: B3 VL with A50Y
VH 2: B1 VH 2
VL 2: B1 VL 2
notes: Fab arm exchange, silent Fc; also called 25H/20L0532//TR01
B5: bivalent IgG antibody 25H0562/20L0072 (antibody, V domains shown)
VH: B3 VH with L32Y, Y108M
VL: B3 VL
B6: bivalent IgG antibody 25H0042/20L0072 (antibody, V domains shown)
VH: B3 VH with L32Y, T33V
VL: B3 VL
B7: bivalent IgG antibody 25H0024/20L0072 (antibody, V domains shown)
VH: B3 VH with L32V
VL: B3 VL
B8: bivalent IgG antibody 25H0176/20L0072 (antibody, V domains shown)
VH: B3 VH with L32Y, G54K
VL: B3 VL
B9: bivalent IgG antibody 25H0322/20L0072 (antibody, V domains shown)
VH: B3 VH with L32Y, D62F
VL: B3 VL

Columns and labels:
ECM [1] = assay: ECM binding assay, ECL reaction
ECM [2] = assay: ECM binding assay, ECL reaction, value divided by that of MRA
human CLDN3 [3] = target: T1, human CLDN3; assay: flow cytometry, FreeStyle 293-F transfectants expressing human CLDN3, anti-human IgG Alexa Fluor 647; MFI
Description: (§1) Antibodies were mixed with FreeStyle™ 293-F cells transiently expressed human and mouse CLDN3, 4, 6, and 9 at final concentration of 10 micro g/mL. After 1 hour of incubation, cells were washed by 0.1% BSA containing D-PBS(−), and incubated in 5 micro g/mL of either Goat anti-Human IgG (H+L) Cross-Adsorbed Secondary Antibody, Alexa Fluor 647 (Invitrogen, A21445) or Goat anti-Mouse IgG (H+L) Highly Cross-Adsorbed Secondary Antibody, Alexa Fluor 647 (Invitrogen, A21236), for 1 hour. Cells were then washed with 0.1% BSA containing D-PBS(−), resuspended in 5 micro L of 0.1% BSA containing D-PBS(−), and analyzed by flow cytometer (iQue Screener, intellicyte).

mouse CLDN3 = target: T2, mouse CLDN3; assay: flow cytometry, FreeStyle 293-F transfectants expressing mouse CLDN3, anti-human IgG Alexa Fluor 647; MFI
Description: as §1

mouse CLDN9 = target: T3, mouse CLDN9; assay: flow cytometry, FreeStyle 293-F transfectants expressing mouse CLDN9, anti-human IgG Alexa Fluor 647; MFI
Description: as §1

mouse CLDN6 = target: T4, mouse CLDN6; assay: flow cytometry, FreeStyle 293-F transfectants expressing mouse CLDN6, 10 micro g/mL antibody, anti-human IgG Alexa Fluor 647; MFI
Description: as §1

human CLDN3 [4] = target: T1, human CLDN3; assay: flow cytometry on hCLDN3/BaF (Ba/F3 transfectant), 15 micro g/ml antibody, Alexa Fluor 488 anti-human IgG; histogram against KLH/TR01
Description: (§2) Amino acid sequence are highly conserved among CLDN3, CLDN4, CLDN6 and CLDN9. Thus we examined CLDN6 binding specificity by FACS analysis. hCLDN6/BaF, hCLDN3/BaF, hCLDN4/BaF, and hCLDN9/BaF were incubated with CS2201, CS2961, AH05/TR01 and 6PHU3/TR01 at 15 micro g/ml. KLH/TR01 generated in Example 2-3 was used as a staining control. Binding of each antibody was detected with Alexa Fluor 488-conjugated anti human IgG (Invitrogen). Dead cells were separated by eFlour 780 (Invitrogen) staining.

human CLDN4 = target: T5, human CLDN4; assay: flow cytometry on hCLDN4/BaF (Ba/F3 transfectant), 15 micro g/ml antibody, Alexa Fluor 488 anti-human IgG; histogram against KLH/TR01
Excerpt: FIG. 35-1. Binding activity of anti-CLDN6/CD3 bispecific antibodies (CS2201, CS2961, AH05/TR01, and 6PHU3/TR01) to human CLDN family proteins (CLDN3, CLDN4, CLDN6, and CLDN9). Binding activity of anti-CLDN6/CD3 bispecific antibodies to BaF3 transfectants (hCLDN6/BaF, hCLDN3/BaF, hCLDN4/BaF, and hCLDN9/BaF) was examined by flow cytometer in a concentration of 15 micro g/ml, and plotted as histogram. KLH/TR01 was used as a negative control. The specificity of CS2961 to human CLDN6 was highest among the tested antibodies.
as §2

Row | Molecule | Luminescence (ECM [1]) | Luminescence ratio vs MRA (ECM [2]) [fold] | further results
1 | MRA (antibody) | 13000 | 1 | 
2 | B1 |  |  | binding result (human CLDN3 [3]): no binding (tested: 10 micro g/mL); binding result (mouse CLDN3): no binding (tested: 10 micro g/mL); binding result (mouse CLDN9): no binding (tested: 10 micro g/mL); binding result (mouse CLDN6): binds
3 | B2 |  |  | binding result (human CLDN3 [3]): no binding (tested: 10 micro g/mL); binding result (mouse CLDN3): no binding (tested: 10 micro g/mL)
4 | B3 | 32900 | 2.52 | 
5 | B4 |  |  | binding result (human CLDN3 [4]): binds; binding result (human CLDN4): binds
6 | B5 | 32600 | 2.5 | 
7 | B6 | 40400 | 3.1 | 
8 | B7 | 29600 | 2.27 | 
9 | B8 | 77000 | 5.91 | 
10 | B9 | 70600 | 5.41 | 
